# Biological target: Aldob (aldolase B) (UniProt P05062)
# Assay: anti-Flag (Aldob) co-IP, Myc-Akt1 blot
# Details: reference: Myc-Akt1 wild type
binding against the reference (sites S473),binding against the reference (sites T308),Substance
weaker,–,Akt1 (from UniProt P31749) Myc-Akt1 S473A
–,weaker,Akt1 (from UniProt P31749) Myc-Akt1 T308A
